US20250026816A1, “Antibodies for Use as Therapeutics Against Bacterial Infections” (priority 2021, published 2025)

How the values were obtained:
[1] = biological target: T1, Oxa-23 carbapenemase enzyme (Acinetobacter baumannii, UniProt Q9L4P2 18-273); test: serological expression cloning: mAb screened on plaques of a phage expression library of A. baumannii genomic DNA (BAL 084, BAL 276), bound phage sequenced
T1 construct: No signal peptide cleavage site is stated; also called class D beta-lactamase; 30kD protein
T1 sequence (Q9L4P2 18-273 limits assumed): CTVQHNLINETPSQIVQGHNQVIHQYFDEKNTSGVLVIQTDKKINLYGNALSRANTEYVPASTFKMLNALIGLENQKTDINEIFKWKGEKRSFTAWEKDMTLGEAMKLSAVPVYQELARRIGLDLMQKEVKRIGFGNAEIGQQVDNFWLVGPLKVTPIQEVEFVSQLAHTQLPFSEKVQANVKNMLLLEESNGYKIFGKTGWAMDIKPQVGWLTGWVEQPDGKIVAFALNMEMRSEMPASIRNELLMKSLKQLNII

OC1 LOS = test: Western blot of extracted LOS; assay type: binding, Acinetobacter baumannii
Source text: (§1) Focusing on the cross-reactive mAbs identified, we used a phage expression library incorporating shotgun A. baumannii genomic DNA from strains BAL 084 and BAL 276. Because the mAbs could potentially bind a polypeptide epitope, we screened mAbs for reactivity with phage plaques from the phage expression library. Using this screening mechanism, we were able to identify individual phage binding to Abs 1348, 1349. By sequencing the phage, we were able to elucidate 1348 and 1349 bound Oxa-23, a class D […] that is a major group of enzymes involved in resistance to carbapenem antibiotics. That we have identified mAbs binding to Oxa-23 in a target agnostic screen is highly significant. […] Secondly, since Oxa-23 is a functional enzyme that inactivates carbapenem and carbapenem resistance is a major clinical issue for the treatment of nosocomial A. baumannii infection, it may be possible to block enzymatic function of Oxa-23 by mAbs and render A. baumannii susceptible to carbapenems. […] The LOS types were determined for a selection of isolates by OCL specific PCR. […] Next, LOS was extracted (with extensive proteinase K treatment to remove any proteins) and analyzed by Western blot using mAb 1042). […] Capsule antigens were extracted from selected strains bearing KL49 and analyzed by subsequent SDS-PAGE and Western blot analysis using the mAb 1416.

E. coli NCTC 13441 LPS = test: Western blot of extracted LPS (control); assay type: binding; conditions: E. coli NCTC13441 (025b)
Source text: as §1

[2] = biological target: T1, Oxa-23 carbapenemase enzyme; test: binding to Oxa-23 on A. baumannii OMVs; method not given at this place
Oxa-23 [3] = biological target: T2, Oxa-23 (Acinetobacter baumannii, UniProt Q9L4P2); test: Specific binding to Oxa-23 on OMVs (summary statement); conditions: on outer membrane vesicles (OMVs) of Acinetobacter baumannii bacteria
T2 construct: endogenous in cells; host or cells: OMVs of GC2 A. baumannii clinical strains
T2 sequence (Q9L4P2 18-273): as the sequence (Q9L4P2 18-273 limits assumed) above

Oxa-23 [4] = biological target: T2, Oxa-23; test: Phage expression library screen (serological expression cloning) for antigen identification; assay type: binding; conditions: phage expression library of genomic DNA from strains BAL 084 and BAL 276
Source text: The particular binding antigen (e.g. Oxa-23, OC1 LOS, or KL49) of an antibody may be determined using a phage expression library e.g. as described in Example 5. For example, shotgun A. Baumannii genomic DNA is incorporated into a phage expression library. The antibody is then screened for reactivity with phage plaques from the expression library and the individual phage binding to the antibody is identified. The identified phage is sequenced, and the sequencing information used to elucidate the binding antigen of the antibody. A suitable phage method for antigen identification will be known to a person skilled in the art. For example, a suitable phage method is described in Lodes M J, Dillon D C, Houghton R L, Skeiky Y A. Expression cloning. Methods Mol Med. 2004; 94:91-106. doi: 10.1385/1-59259-679-7:91. PMID: 14959824, the contents of which are incorporated by reference.
Focusing on the cross-reactive mAbs identified, we used a phage expression library incorporating shotgun A. baumannii genomic DNA from strains BAL 084 and BAL 276. […] The LOS types were determined for a selection of isolates by OCL specific PCR. […] Next, LOS was extracted (with extensive proteinase K treatment to remove any proteins) and analyzed by Western blot using mAb 1042). […] Capsule antigens were extracted from selected strains bearing KL49 and analyzed by subsequent SDS-PAGE and Western blot analysis using the mAb 1416.

Molecule | binding result [2] | specific binding to Oxa-23 (Oxa-23 [3]) | further results
Antibody 1349 (antibody, V domains shown, It was expressed as human IgG1; also called PPB-1349) VH: QITLKESGPTLVKPTQTLTLTCTFSGFSLSTSGVGVGWIRQPPGKALEWLALIYWDDDKRYSPSLKSRLTITKDTSKNQVVLTMTNMDPVDTATYYCAHSYYYDSSDSYYFDYWGQGTLVTVSS VL: DIQLTQSPSFLSASVGDRVTITCWASQGISSRLAWYQQKPGKAPKLLIYAASTLQSGVPSRFSGSGSGTEFTLTISSLQPEDFGNYYCQQFNTYPFTFGPGTKVDIKR | – | – | binding result [1]: binds
Antibody 1042: anti-OC1 LOS antibody; VH SEQ ID No: 188, VL SEQ ID No: 191 (antibody, V domains shown) VH: QITLKESGPTLVKPTQTLTLTCTFSGFSLSTSGVGVGWIRQPPGKALEWLAVIYWDDDKRYSPSLKSRVTITKDTSKNQVVLTMTNMDPVDTATYYCAHSYYHDSSDSYYFDYWAQGTLVTVSS VL: DIQLTQSPSFLSASVGDRVTITCWASQGISSRLAWYQQKPGKAPKLLIYAASTLQSGVPSRFSGSGSGTEFTLTISSLQPEDFATYYCQQLTSYPFTFGPGTKVDIK | – | – | binding to extracted LOS (OC1 LOS; ATCC 17978 (OCL2)): no binding; binding to 10kD target in extracted LOS (OC1 LOS; OC1 isolates A. baumannii BAL_191, BAL_339, BAL_372): Specific binding; binding to extracted LPS (E. coli NCTC 13441 LPS): no binding
Antibody 1550 (antibody, V domains shown, also called PPB-1550) VH: QVQLVESGGGVVQPGRSLRLSCAASGFTFSSYGMHWVRQAPGKGLEWVAVISYDGSNKYYADSVKGRFTISRDNSKNTLYLQMNSLRAEDTAVYYCAKESLTMVRGEGFDPWGQGTLVTVSS VL: DIQMTQSPSSVSASVGDRVTITCRASQGISSWLAWYQQKPGKAPKLLIYAASSLQSGVPSRFSGSGSGTDFTLTISSLQPEDFATYYCQQANSFPCSFGQGTKLEIK | binds | specifically bind to Oxa-23 | –
Antibody 1548 (antibody, V domains shown, also called PPB-1548) VH: QVQLVESGGGVVQPGRSLRLSCAASGFTFSSYAMHWVRQAPGKGLEWVAVISYDGSNKYYADSVKGRFTISRDNSKNTLYLQMNSLRAEDTAVYYCAGYGGNSLDPWGQGTLVTVSS VL: AIQMTQSPSSLSASVGDRVTITCRASQGIRNDLVWYQQKPGKAPKVLIYDASSLQSGVPSRFSGSGFGTDFTLTISSLQPEDFATYYCLQDYNYPCSFGQGTKLEIK | binds | specifically bind to Oxa-23 | –
Antibody 1348 (antibody, V domains shown, Only variable domains are tied to 1348; also called PPB-1348) VH: EVQLVESGGGFVQPGRSLRLSCIASGFTFDDYAMHWVRQTPGKGLEWVSVISWNSVSIGYADSVKGRFTISRDNAKNSLYLQMNSLRAEDTALYYCARYSSGPDAFDIWGQGTMVTVSS VL: DIQMTQSPSSLSASVGDRVTITCRASQDIRNDLGWYQQKPGKAPKRLIYAASSLQSGVPSRFSGSGFGTEFTLTISSLQPEDFATYYCLQHYTYPPTFGGGTRVEIK | – | – | binding result [1]: binds
Antibody 1540 (antibody, V domains shown, also called PPB-1540) VH: EVQLVESGGGFVQPGRSLRLSCIASGFTFDDYAMHWVRQTPGKGLEWVSVISWNSVSIGYADSVKGRFTISRDNAKNSLYLQMNSLRAEDTALYYCARYSSGPDAFDIWGQGTMVTVSS VL: DIQMTQSPSSLSASVGDRVTITCRASQDIRNDLGWYQQKPGKAPKRLIYAASSLQSGVPSRFSGSGFGTEFTLTISSLQPEDFATYYCLQHYTYPPTFGGGTRVEIK | binds | – | –
1348 (antibody, V domains shown) VH: EVQLVESGGGFVQPGRSLRLSCIASGFTFDDYAMHWVRQTPGKGLEWVSVISWNSVSIGYADSVKGRFTISRDNAKNSLYLQMNSLRAEDTALYYCARYSSGPDAFDIWGQGTMVTVSS VL: DIQMTQSPSSLSASVGDRVTITCRASQDIRNDLGWYQQKPGKAPKRLIYAASSLQSGVPSRFSGSGFGTEFTLTISSLQPEDFATYYCLQHYTYPPTFGGGTRVEIK | – | specifically bind to Oxa-23 | antigen bound, elucidated by sequencing the binding phage (Oxa-23 [4]): bound Oxa-23
1540 (antibody, V domains shown) VH: EVQLVESGGGFVQPGRSLRLSCIASGFTFDDYAMHWVRQTPGKGLEWVSVISWNSVSIGYADSVKGRFTISRDNAKNSLYLQMNSLRAEDTALYYCARYSSGPDAFDIWGQGTMVTVSS VL: DIQMTQSPSSLSASVGDRVTITCRASQDIRNDLGWYQQKPGKAPKRLIYAASSLQSGVPSRFSGSGFGTEFTLTISSLQPEDFATYYCLQHYTYPPTFGGGTRVEIK | – | specifically bind to Oxa-23 | –
